Test results: US7632650B2, “Diagnostics and therapeutic uses of topors” (University of Medicine and Dentistry of New Jersey, priority 2002, dated 2009)
Blank lines part the entries; values can stand above or below the molecule they belong to.

What was measured:
[1] = tested on: HeLa cells expressing GFP-topors or GFP-PML; test: imaging of GFP-topors or GFP-PML in nuclear bodies before and after treatment; format: cell-based, human; conditions: 10 μM, thirty minutes
Experimental: Acute promyelocytic leukemia, a type of cancer affecting the blood, is characterized by an abnormal block in the development of stem cells. It has now been discovered that topors localizes in nuclear bodies associated with promyelocytic leukemia (PML) oncogenic domains. In these experiments HeLa cells were immunostained with antibodies recognizing both topors and PML. Separate and merged fluorescent images from a representative cell were analyzed. PML nuclear bodies are nuclear depot sites, which are disrupted in cells from patients with promyelocytic leukemia with t (15;17) . Topors relocalized to the nucleoplasm after DNA damage. […] In these experiments, HeLa cells expressing GFP-topors or GFP-PML were imaged before and after treatment with 0.1% DMSO, 10 μM DRB, 10 μM CPT, or 30 μM cycloheximide for thirty minutes.

p53 = p53 (Homo sapiens, UniProt P04637); test: in vitro sumoylation of p53; format: biochemical; conditions: E1 and Ubc9
Sequence of p53 (P04637 whole entry, species assumed): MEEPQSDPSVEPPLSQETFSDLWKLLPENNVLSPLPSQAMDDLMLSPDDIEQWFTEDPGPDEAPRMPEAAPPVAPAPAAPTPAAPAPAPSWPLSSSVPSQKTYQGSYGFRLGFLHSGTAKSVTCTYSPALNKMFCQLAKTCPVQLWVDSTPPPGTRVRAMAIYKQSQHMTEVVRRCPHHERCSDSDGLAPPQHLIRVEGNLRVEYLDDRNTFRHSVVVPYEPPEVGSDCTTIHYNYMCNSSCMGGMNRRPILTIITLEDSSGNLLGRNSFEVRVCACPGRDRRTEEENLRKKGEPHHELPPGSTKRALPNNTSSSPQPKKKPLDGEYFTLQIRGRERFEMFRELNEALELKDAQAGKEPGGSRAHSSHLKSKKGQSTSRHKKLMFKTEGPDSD
Experimental: (§1) Reaction products were analyzed using monoclonal anti-p53 and polyclonal anti-IkBα antibodies.

[2] = tested on: cervical cancer cell line; test: overexpression of topors in cancer cell line; format: cell-based
Source text: The topors protein was not detected in lysates from several different tumor cell lines. In this regard, in matched normal and tumor human tissue specimens, the topors protein was detectable only in normal tissues (FIGS. 3 and 4).

ubiquitin = test: in vitro ubiquitination reaction with E1, E2 proteins and ubiquitin; format: biochemical; conditions: 400 ng E1, 200 ng E2, 3 μg ubiquitin, ~100 ng GST-topors or GST
Experimental: This analysis was carried out using reactions containing 400 ng E1, 200 ng of various E2 proteins, 3 μg of ubiquitin, and either ˜100 ng GST-topors or GST. Reaction products were resolved by SDS-PAGE under reducing conditions. Migration of probable poly-ubiquitin chains was determined. All E2s were active as assessed by thiolester formation.

IkBα = molecular target: T1, IkBα (Homo sapiens, UniProt P25963); test: in vitro sumoylation of IkBα; format: biochemical; conditions: E1 and Ubc9
T1 sequence (P25963 1-317): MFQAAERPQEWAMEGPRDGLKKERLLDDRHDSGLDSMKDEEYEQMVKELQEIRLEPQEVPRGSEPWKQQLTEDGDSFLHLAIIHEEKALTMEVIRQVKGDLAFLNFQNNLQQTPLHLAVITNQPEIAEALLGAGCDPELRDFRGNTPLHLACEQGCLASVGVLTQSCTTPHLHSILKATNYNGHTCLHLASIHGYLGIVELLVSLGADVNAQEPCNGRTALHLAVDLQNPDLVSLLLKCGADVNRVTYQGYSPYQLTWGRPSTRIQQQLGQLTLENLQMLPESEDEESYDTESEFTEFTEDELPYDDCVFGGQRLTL
Experimental: as §1

mammalian cells = test: SUMO-2 conjugate formation in cells; format: cell-based
Source text: Additionally, it was shown that topors functions as an E3-type ubiquitin ligase an E3-type SUMO ligase for topoisomerase and p53. Thus, topors is a dual function ubiquitin and SUMO ligase. Recombinant topors enhances formation of polyubiquitin conjugates by specific E2 ubiquitin enzymes in vitro, with the RING domain necessary and sufficient for this activity. While topors-induced ubiquitination of bacterially expressed top1 was unable to be detected in vitro, similar assays using Ubc9, SAE1/SAE2, and SUMO-1 indicate that topors stimulates formation of top1-SUMO-1 conjugates by Ubc9. […] Instead, this activity maps to the 536-704 region, which contains a nuclear localization sequence and is within the top1-binding region. Ectopic expression of topors in HeLa cells increases formation of SUMO-2 conjugates.
as §1

top1 = molecular target: T2, top1 (Homo sapiens, UniProt P11387); test: in vitro top1 sumoylation with purified components; format: biochemical; conditions: purified sumo conjugation components, purified top1 and topors
T2 sequence (P11387 1-765): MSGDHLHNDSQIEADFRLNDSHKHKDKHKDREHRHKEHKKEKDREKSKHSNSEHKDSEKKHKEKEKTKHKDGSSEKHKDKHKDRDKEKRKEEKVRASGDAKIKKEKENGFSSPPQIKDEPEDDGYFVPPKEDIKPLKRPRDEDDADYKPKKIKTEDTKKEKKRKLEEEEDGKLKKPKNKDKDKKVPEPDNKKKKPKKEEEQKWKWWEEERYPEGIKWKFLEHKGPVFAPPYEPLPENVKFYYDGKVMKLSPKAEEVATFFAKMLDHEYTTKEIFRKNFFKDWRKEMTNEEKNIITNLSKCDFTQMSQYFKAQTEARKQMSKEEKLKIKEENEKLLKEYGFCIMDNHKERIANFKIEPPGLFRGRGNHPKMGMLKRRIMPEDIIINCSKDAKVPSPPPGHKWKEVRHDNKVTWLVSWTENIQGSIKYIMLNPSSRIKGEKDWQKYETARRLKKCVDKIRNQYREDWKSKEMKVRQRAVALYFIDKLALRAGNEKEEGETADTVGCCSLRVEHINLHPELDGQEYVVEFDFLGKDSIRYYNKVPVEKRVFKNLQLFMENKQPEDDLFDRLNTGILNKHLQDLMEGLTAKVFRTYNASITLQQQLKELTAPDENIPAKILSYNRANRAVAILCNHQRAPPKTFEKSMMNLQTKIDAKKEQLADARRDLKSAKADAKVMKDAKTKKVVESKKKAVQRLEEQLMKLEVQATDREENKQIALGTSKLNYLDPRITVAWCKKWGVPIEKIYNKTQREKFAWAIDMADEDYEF
Experimental: Topors is homologous in the RING domain to proteins implicated in conjugation of ubiquitin and SUMO, such as MDM2 and BRCA1. Previously, it has been shown that topors binds to the N-terminus of top1. […] Topors also redistributes from PML (promyelocytic leukemia) nuclear bodies to a diffuse nuclear localization when exposed to CPT. When incubated with a HeLa cell fraction containing SAE1/SAE2, purified SUMO-1, and purified Ubc9, minimal top1-SUMO conjugates could be detected using Top1 and SUMO antibodies.
Using purified components of the sumo conjugation system as well as purified top1 and topors, top1-SUMO conjugates were detected. Removing any of the sumoylation components or topors abrogated top1 sumoylation.

Molecule: OC[C@H]1O[C@@H](n2cnc3cc(Cl)c(Cl)cc32)[C@H](O)[C@@H]1O [DRB]
- dispersion of topors / PML from nuclear bodies [1]: induce rapid dispersion of topors but not PML from nuclear bodies

Molecule: CC[C@@]1(O)C(=O)OCc2c1cc1n(c2=O)Cc2cc3ccccc3nc2-1 [CPT, camptothecin]
- dispersion of topors / PML from nuclear bodies [1]: induce rapid dispersion of topors but not PML from nuclear bodies

- sumoylation of p53 (p53): activates sumoylation of p53
- E3 ubiquitin ligase function (poly-ubiquitin chains) (ubiquitin): functions as an E3 ubiquitin ligase
- sumoylation of IkBα (IkBα): not IkBα
- top1 sumoylation in vitro (top1): enhances top1 sumoylation in vitro
B1: topors: RING protein that binds topoisomerase 1 and p53; dual E3 ubiquitin/SUMO ligase (protein)
chain: MGSQPPLGSPLSREEGEAPPPAPASEGRRRSRRVRLRGSCRHRPSFLGCRELAASAPARPAPASSEIMASAAKEFKMDNFSPKAGTSKLQQTVPADASPDSKCPICLDRFDNVSYLDRCLHKFCFRCVQEWSKNKAECPLCKQPFDSIFHSVRAEDDFKEYVLRPSYNGSFVTPDRRFRYRTTLTRERNASVYSPSGPVNRRTTTPPDSGVLFEGLGISTRPRDVEIPQFMRQIAVRRPTTADERSLRKIQEQDIINFRRTLYRAGARVRNIEDGGRYRDISAEFFRRNPACLHRLVPWLKRELTVLFGAHGSLVNIVQHIIMSNVTRYDLESQAFVSDLRPFLLNRTEHFIHEFISFARSPFNMAAFDQHANYDCPAPSYEEGSHSDSSVITISPDEAETQELDINVATVSQAPWDDETPGPSYSSSEQVHVTMSSLLNTSDSSDEELVTGGATSQIQGVQTNDDLNNDSDDSSDNCVIVGFVKPLAERTPELVELSSDSEDLGSYEKMETVKTQEQEQSYSSGDSDVSRCSSPHSVLGKDEQINKGHCDSSTRIKSKKEEKRSTSLSSPRNLNSSVRGDRVYSPYNHRHRKRGRSRSSDSRSQSRSGHDQKNHRKHHGKKRMKSKRSRSRESSRPRGRRDKKRSRTRDSSWSRRSQTLSLSSESTSRSRSRSSDHGKRRSRSRNRDRYYLRNNYGSRYKWEYTYYSRNKDRDGYESSYRRRTLSRAHYSRQSSSPEFRVQSFSERTNARKKNNHSERKYYYYERHRSRSLSSNRSRTASTGTDRVRNEKPGGKRKYKTRHLEGTNEVAQPSREFASKAKDSHYQKSSSKLDGNYKNESDTFSDSRSSDRETKHKRRKRKTRSLSVEIVYEGKATDTTKHHKKKKKKHKKKHKKHHGDNASRSPVVITIDSDSDKDSEVKEDTECDNSGPQDPLQNEFLAPSLEPFETKDVVTIEAEFGVLDKECDIATLSNNLNNANKTVDNIPPLAASVEQTLDVREESTFVSDLENQPSNIVSLQTEPSRQLPSPRTSLMSVCLGRDCDMS
- effect of overexpression on cancer cells [2]: cell death
- SUMO-2 conjugates (mammalian cells): increases SUMO-2 conjugates
